Biological target: the molecule itself
Assay: SEC; Biosep-SEC-S3000 column; 20 mM Tris-HCl, 20 mM MES, 200 mM NaCl, 10 mM MgCl2, 0.1 mM EDTA, 7 mM 2-mercaptoethanol, pH 6.5; 25 °C; apparent molecular mass against injected monomer concentration, fitted to a monomer-dimer equilibrium; apparent constants; dimer to monomers

B1: V583 ArdA (ArdA protein from Enterococcus faecalis V583, Orf EF2335) (natural protein, UniProt Q832A5 1-166, looked up)
chain: MEQMRVYIANLGKYNEGELVGAWFTPPVDFDEVKERIGLNDDYEEYAIHDYELPFEIDEYTSIEEINRLCGLAEELEGTPIGEVASEIQHAFFNSFEEMVEHVDDIVYYPDCNDMEDLAYQMVNEGYLGDAPENFVRYFNYSSFARDLEIEGNYLVTNRGIFEYPI
notes: ArdA protein, open reading frame EF2335 of Enterococcus faecalis V583; In solution an equilibrium of monomer and dimer; source: overexpressed, purified (DEAE anion exchange chromatography, size exclusion chromatography)
Q: For B1, which Kd is on record?
A: 980 nM
